From patent US20150273076A1, “SP1 POLYPEPTIDES, MODIFIED SP1 POLYPEPTIDES AND USES THEREOF” (Fulcrum SP Ltd., priority 2006, published 2015)
≈ marks a conversion by molar mass, not a printed value. Entries after “also recorded” stand apart in the source; their conditions may differ.

B1: Cys2: SP1 variant with cysteine residue inserted in position 2, SEQ ID NO:3 (protein)
chain: MCATRTPKLVKHTLLTRFKDEITREQIDNYINDYTNLLDLIPSMKSFNWGTDLGMESAELNRGYTHAFESTFESKSGLQEYLDSAALAAFAEGFLPTLSQRLVIDYFLY
modifications: Sp1 mutant variant Cys in position 2

How the values were obtained:
[1] = test system: Human colon adenocarcinoma (HT-29) cells; assay: In-vitro cytotoxicity in HT-29 cells; assay type: cell-based; conditions: HT-29 cells, dose inhibiting 50% of cell growth
Text: FIGS. 24a and 24b are graphs illustrating the in-vitro cytotoxic effects of SP1-DOX complex. FIG. 24a—HT-29 cells cultured in 96 well microtiter plates were exposed to uncomplexed DOX (closed oval, magenta) or SP1-DOX complex (closed triangle, blue) prepared as described in FIGS. 9-15, at the indicated concentrations. FIG. 24b—HT-29 cells were exposed to uncomplexed SP1 (without DOX) (closed diamond, blue) or SP1-DOX complex (closed triangle, yellow) at indicated concentrations. Proportion of living cells was determined by MTT assay, and the IC50 was calculated.
HT-29 cells were prepared as in FIG. 24 above.
Human colon adenocarcinoma (HT-29) cells. The cells were grown in 50-ml flasks containing DMEM medium (Biological Industries, Bet Haemek), supplemented with 10% fetal calf serum, 1% glutamine and 1% Antibiotic-Antimicotic solution (Biolab, Israel). The cells were trypsinizated, and 2 ml medium containing 5×10^4 cells were plated in each well of a 6-wells plate. SP1, drugs or SP1-complexed with drugs was added at the indicated concentrations. The cells were incubated at 37° C. in a humidified atmosphere containing 5% CO2.After 48 hours the medium in the presence or absence of drugs was replaced in each well respectively, to maintain a constant supply of ingredients and drugs. After four days the medium was removed and the number of viable cells in the cultures was determined by spectroscopy.
The human colorectal adenocarcinoma cell line, HT-29, was used to evaluate the biological activity of the SP1-DOX complex, compared to that of the free drug and un-complexed SP1 protein. […] Thus, the SP1-DOX complex is at least as biologically active as free DOX.

[2] = test system: human LS147T colon cancer; assay: In-vivo anti-tumorogenic activity in colon cancer xenograft; set-up: species or system CD1 nude mice; conditions: SP1-DOX 0.5 and free DOX 3 mg DOX/kg iv two times a week
Method: CD1 nude mice bearing human LS147T colon cancer (one million cells per animal) subcutaneous xenografted tumors were divided into two groups (n=6), and received either SP1-Dox (50 mg/Kg in PBS, about 0.5 mg DOX equivalent/Kg) or PBS (FIG. 27a), or uncomplexed DOX (3 mg/Kg) or PBS (FIG. 27b) alone injected intravenously into the tail vein twice per week for four weeks. Tumors were removed and weighed 35 days post engraftment.
Human LS147T colon cancer (one million cells per animal) were grafted sub cutaneously to CD1 nude mice, […], 18-20 g) (Meyer et al. 1995 Am J Dermatopath; 17:368-73). 8 days later a 3-10-mm tumor appeared in the point of injection. […]
8 days after tumor grafting SP1-DOX (50 mg/Kg in PBS, about […]), free DOX (3 mg/Kg in PBS) or PBS alone, six mice in each group, were injected iv to the tail vein twice a week for four weeks. Tumor dimension was determined by caliper measurements by the standard equation (Kalechman et al. Int J Cancer 2000; 86:281-8). […] Tumors were removed and their weight was determined.
The effect of SP1-complexing on the anti-tumorogenic activity of DOX was determined in vivo using the LS147 (human colon cancer) model in CD1 nude mice (Meyer 1995). […] At 35 days past tumor grafting, the animals were sacrificed, tumors were removed and their weight recorded (FIGS. 27a and 27b). […]

[3] = Resistance of SP1 complex to organic solvents; assay type: physicochemical
Method: 150 ul of 1 mg/ml samples in 10 mM sodium phosphate pH 7 were lyophilized overnight and resuspended in 150 μl organic solvents for 10 minutes. Following a 30 minutes speed vac the samples were resuspended in 150 μl water and analyzed by SDS-PAGE.
In order to further test the stability of SP1 and SP1 oligomeric complexes, wild type SP1 and the SP1 variant Cys2 SP1 were dissolved in buffer, exposed to organic solvents methanol and hexane, and analyzed by SDS-PAGE (FIG. 18).
In order to determine the stability of the SP1 complex in organic solvents, SP1 and Cys2 SP1-variant (SEQ ID NO: 3) were dissolved in organic solvents, dried, reconstituted with aqueous solvent, and separated on SDS-PAGE.

[4] = Fluorescein-amine complex formation (ultrafiltration, size exclusion HPLC); assay type: binding
Method: FIG. 9 is a histogram showing redox-dependent complex formation with small molecules by Cys2 SP1. Pure Cys 2 mutant (1.5 mg/ml in Phosphate buffered saline, pH=7.5 (PBS)) was incubated for 2 hours at room temp, with I mM fluorescein-amine with or without glutathione (reduced form, GSH 3 mM). Binding reaction was stopped by adding hydrogen peroxide (0.01%), followed by ultra filtration (using a 30 kD cutoff filter) and extensive wash. Absorption analysis was conducted at both 278 and 492 nm, and the results expressed as the 492/278 ratio. Note that in the absence of the reducing agent (GSH), retention of the flourescein-amine is negligible;
FIG. 10 is a graphic representation of the redox-dependent fluorescein amine complex formation by Cys2 SP1, compared to the recombinant SP1. Fluorescein-amine was incubated with pure SP1 or Cys2 SP1 mutant (1.5 mg/ml in PBS pH=7.5) in the absence or presence of DTT (10 mM). Binding reaction was stopped by adding hydrogen peroxide (0.01%), followed by ultra filtration (using 30 kD cutoff filter) and extensive wash. Samples were analyzed by Gel filtration HPLC, and detected at both 228 and 490 nm. Calculated data is shown on the right.
FIG. 11 is a histogram illustrating the concentration dependent complex formation with fluorescein-amine by Cys2 SP1. Huorescien-amine (10, 33, 100 or 333 mM) was incubated with Cys 2 SP1 or pure wild type SP1 in the presence of 10 mM DTT, and the bound and unbound fractions analyzed by ultra-filtration and HPLC as in FIG. 10.
(§1) Ultrafiltration was used for the detection of complex formation with the water soluble ligands FA and DOX which have a distinctive absorption properties and can be determined by spectroscopic measurements. […] Several additional washing cycles remove all remaining free FA and DOX, and the ligand-SP1 complex remains in the retained fraction.
(§2) Size exclusion chromatography is a common method for separation of molecules of different sizes under mild conditions and was employed to test FA and DOX complex formation under mild conditions. SP1 is eluted from the column after 7 min and is detected at 278 nm only, and free FA is eluted from the column (TSK G3000 SWXL, Tosohaas) after 16 min and is detected at 490 nm. The SP1-FA and SP1-DOX complexes also eluted at the same time but is detected also at 490 and 475 nm, respectively. DOX/SP1 ratio is determine from the standard curve obtained in solution.
5. Can complexed ligand be stabilized by association with the Cys2 SP1? Fluoresceine amine (FA): FA absorption peak is at 490 nm and at much lower extend at 278 nm (for a given FA concentration OD278/OD490=0.19)(see FIG. 31), when SP1 absorption peak is at 278 nm (see FIG. 30), and it is not detected at 490 nm. […] FA complexing with the Cys2 Sp1 variant was determined following incubation of FA and Cys2 SP1 variant in the absence or presence of GSH, followed by protein oxidation, ultra filtration (30 kDa cutoff) and exhaustive wash of the retained fraction with PBS with or without GSH. Absorption analysis at both 278 and 490 nm.

[5] = Doxorubicin complex formation and release (ultrafiltration, HPLC, SDS PAGE fluorescence); assay type: binding; conditions: for DOX complex formation: reducing conditions (DTT or GSH)
Method: Pure wild type SP1 or Cys2 SP1 mutant (1.5 mg/ml in 20 mM Sodium Phosphate buffered, pH=6.8) were incubated overnight at room temp, with DOX 1 mg/ml in the presence of DTT (10 mM), with gentle rolling. Binding reaction was stopped by adding hydrogen peroxide (0.01%), followed by ultra filtration (using 30 kD cutoff filter) and extensive wash until follow-through become colorless. Optical density was measured at both 278 and 477 nm using nanodrop spectrophotometer. Note the dramatic effect of the reducing agent on drug binding by the Cys2 SP1, compared to the absence of effect on the wild type SP1.
FIG. 13 is a histogram illustrating the redox-dependent release of Doxorubicin by Cys2 SP1. Doxorubicin (DOX) was complexed within Cys2 SP1 as described in FIGS. 9-12 above. Release of the drug in the presence of 0, 2 and 20 mM GSH was measured by ultrafiltration and size exclusion HPLC analysis (detection at 228 and 475 nm);
FIG. 14 is a histogram illustrating the effect of oxidation on DOX complex formation by Cys2 SP1. Doxorubicin (DOX) was reacted with Cys2 SP1 and wild type SP1 as described in FIGS. 9-13 above. Oxidized protein indicates exposure to excess of H2O2 prior to treatment with GSH. DOX complex formation was measured by ultrafiltration and size exclusion HPLC analysis (detection at 228 and 475 nm). […] 1=the retentate; 2=the flow through; and 3=a DOX standard 20 μg/ml.
FIG. 17 is a photograph of a fluorescent PAGE analysis illustrating effective complex formation with DOX by Cys2 and SP1 fusion proteins. Recombinant wild type (lanes 1 and 2), Cys2 (lanes 3 and 4), and SP1 fusion proteins having additional N-terminal tumor specific peptide RGD (CRGD, SEQ ID NO:151; fusion protein is SEQ ID NO: 5)(lanes 5 and 6), or RGD in reverse order (RGDC, SEQ ID NO: 152; fusion protein is SEQ ID NO: 6)(lanes 7 and 8) were reacted with DOX to form complex as described in FIGS. 9-14 above, and then separated on SDS-PAGE with (lanes 2, 4, 6 and 8) or without (lanes 1, 3, 5 and 7) denaturation by boiling in LSB.
as §1, §2
Reverse phase HPLC (RP-HPLC) analysis separates between free DOX, PXT, and SP1. Both compounds bind to the resin (C-18) and are eluted at different acetonitrile concentrations, and detected at both 278 and 225 nm (SP1), 225 nm (PTX) and 477 nm (DOX).
Pyrogen free Cys2 SP1 variant (SEQ ID NO:3) in 20 mM (Na Phosphate buffer pH-6.7) final 2 mg/ml was diluted with DOX solution (Teva, Israel) 1:2 dilution final 1 mg/ml. Where indicated, GSH was added, and the solution is mixed overnight. Where indicated (oxidized), H2O2 is added to 0.1%, buffer added to 3× volume, and the solution is sonicated (3×22 sec. 1:1 pulse/pause at 3% amplitude 0.5 min. pause, using a Vibra-Cell 750 W sonicator).

[6] = Heat stability (no precipitation after heat treatment); conditions: 10 min at 100° C. or 30 min at 85° C.
[7] = Oligomeric complex formation by SDS PAGE (unboiled samples); conditions: boiling and protease stability
Method: SP1 (20 μg) was prepared in SDS sample buffer at different SP1-monomer: SDS molar ratios and boiled (or not) (5 mM) prior to SDS-PAGE analysis. Heat stability of SP1 oligomer (10 μg) was tested in the same buffer at SP1-monomer: SDS=1:1733 and heated for 1 to 10 mM at different temperatures.
Purified 6HSP1 and ΔNSP1 were first denatured to the monomeric forms by boiling the proteins in SDS sample buffer. The denatured proteins were then separated in preparative SDS-PAGE, and visualized by Coomassie blue staining. The monomeric forms of two recombinant protein bands were excised. Gel slices that carried monomeric form of 6HSP1 (SEQ ID NO:7) and ΔNSP1 (SEQ ID NO:2) were mixed at 1:1 ratio (v/v). In order to enhance the surface/volume ratio, the gel slices were pulverized using a pestle and mortar in the presence of liquid nitrogen. […] The hetero-oligomeric complex was isolated by subjecting the eluated protein to Ni-NTA Agarose beads and the bound proteins were eluted by 400 mM imidazole using a standard procedure (Sigma protocol for P 6611). […] The composition of hetero-oligomeric SP1 was determined by SDS-PAGE and visualized by silver staining.

Molecule	IC50 [1] [µg/mL]	histological examination of the tumors [2]	average tumor size in the end of the experiment versus PBS-treated animals ([2]; 35 days)	protease resistance after hexane treatment ([3]; hexane-treated, data not shown)	resistance of oligomeric complex to organic solvents ([3]; methanol, hexane, SDS-PAGE)	FA complexing at low ligand concentration ([4]; 10 μM FA, 10 mM DTT)	efficiency of FA complexing in the presence of reducing agents ([4]; 10 mM DTT)	retention of the flourescein-amine ([4]; absence of the reducing agent (GSH), 492/278 ratio)	efficiency of FA complexing relative to wild type SP1 ([4]; ≧100 μM FA)	DOX complexing after oxidation prior to DOX addition ([5]; oxidized protein (H2O2))	DOX complex formation [5]	DOX complex formation ([5]; listed as Cys2 SP1 variant)	Heat stability [6]	oligomeric complex formation, stability and resistance [7]
COc1cccc2c1C(=O)c1c(O)c3c(c(O)c1C2=O)C[C@@](O)(C(=O)CO)C[C@@H]3O[C@H]1C[C@H](N)[C@H](O)[C@H](C)O1 [doxorubicin]	~0.6 (≈ 1.1 µM)	extensive necrosis	much smaller											
B1				resistance to protease treatment	Predominantly high molecular weight oligomer complex form; also recorded: even more resistant than the wild type	efficient complexing	greater than 3 fold	negligible	greater than 3 fold	eliminates DOX complexing	effective binding	much greater extent	+	formed homo- and hetero-oligomeric complexes
